Experimental data published in the supplement of paper PMC9876800.

Test system: peptide library, one residue held at a place counted from the S/T acceptor
Assay: relative phosphorylation of the sub-library (ratio to the mean residue at this position); higher = residue favoured
Conditions: human
In short: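 Purified recombinant kinases were reacted in 384-well plates with biotinylated degenerate peptide sub-libraries, each having one residue fixed at one position around a central Ser/Thr. The reaction mix contained 50 μM peptide plus 50 μM ATP spiked with γ-32P-ATP and ran for 90 min under kinase-specific conditions. Relative sub-library phosphorylation, taken from densitometry of phosphorimaged streptavidin membrane spots, is a ratio to the mean residue at that position.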

NLK, construct: Full length, sequence (Q9UBE8 whole entry, looked up): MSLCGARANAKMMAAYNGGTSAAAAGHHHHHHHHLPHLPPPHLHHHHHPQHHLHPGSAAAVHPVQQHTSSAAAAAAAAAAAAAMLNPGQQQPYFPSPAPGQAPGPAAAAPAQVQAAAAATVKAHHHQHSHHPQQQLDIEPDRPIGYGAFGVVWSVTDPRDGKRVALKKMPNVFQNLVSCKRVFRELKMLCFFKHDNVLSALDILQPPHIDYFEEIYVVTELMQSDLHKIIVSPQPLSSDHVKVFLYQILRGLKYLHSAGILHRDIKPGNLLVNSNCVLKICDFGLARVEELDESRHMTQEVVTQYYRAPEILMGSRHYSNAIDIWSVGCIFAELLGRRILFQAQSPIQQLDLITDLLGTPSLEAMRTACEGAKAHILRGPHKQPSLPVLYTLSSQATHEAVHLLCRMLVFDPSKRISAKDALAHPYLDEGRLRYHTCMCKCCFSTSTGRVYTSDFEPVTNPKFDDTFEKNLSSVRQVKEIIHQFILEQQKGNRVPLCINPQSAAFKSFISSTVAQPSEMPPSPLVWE
PASK, construct: aa949-1323, sequence (Q96RG2 949-1323, looked up): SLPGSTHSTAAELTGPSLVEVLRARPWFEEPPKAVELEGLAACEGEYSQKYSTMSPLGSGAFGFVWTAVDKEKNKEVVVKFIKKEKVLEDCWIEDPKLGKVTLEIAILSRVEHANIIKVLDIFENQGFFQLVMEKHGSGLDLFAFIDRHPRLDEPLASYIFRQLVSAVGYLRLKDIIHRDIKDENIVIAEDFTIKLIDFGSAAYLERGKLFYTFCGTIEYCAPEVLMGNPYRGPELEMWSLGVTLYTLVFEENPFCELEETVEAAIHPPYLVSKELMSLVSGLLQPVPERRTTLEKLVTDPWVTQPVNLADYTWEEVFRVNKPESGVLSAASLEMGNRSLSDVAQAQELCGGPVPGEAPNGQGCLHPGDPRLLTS
PDK4, construct: Full length, sequence (Q16654 whole entry, looked up): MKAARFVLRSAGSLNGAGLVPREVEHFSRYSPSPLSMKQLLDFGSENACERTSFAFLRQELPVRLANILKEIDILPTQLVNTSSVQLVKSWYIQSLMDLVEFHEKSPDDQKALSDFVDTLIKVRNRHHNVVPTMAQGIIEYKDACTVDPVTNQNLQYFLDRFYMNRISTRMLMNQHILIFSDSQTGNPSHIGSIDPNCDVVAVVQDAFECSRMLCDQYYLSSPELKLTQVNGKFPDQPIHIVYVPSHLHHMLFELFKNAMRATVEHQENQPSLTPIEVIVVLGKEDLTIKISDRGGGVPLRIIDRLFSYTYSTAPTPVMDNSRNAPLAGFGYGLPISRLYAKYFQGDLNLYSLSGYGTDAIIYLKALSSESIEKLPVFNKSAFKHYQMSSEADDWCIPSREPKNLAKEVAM
PAK6, construct: aa382-end, sequence (Q9NQU5 382-681, looked up): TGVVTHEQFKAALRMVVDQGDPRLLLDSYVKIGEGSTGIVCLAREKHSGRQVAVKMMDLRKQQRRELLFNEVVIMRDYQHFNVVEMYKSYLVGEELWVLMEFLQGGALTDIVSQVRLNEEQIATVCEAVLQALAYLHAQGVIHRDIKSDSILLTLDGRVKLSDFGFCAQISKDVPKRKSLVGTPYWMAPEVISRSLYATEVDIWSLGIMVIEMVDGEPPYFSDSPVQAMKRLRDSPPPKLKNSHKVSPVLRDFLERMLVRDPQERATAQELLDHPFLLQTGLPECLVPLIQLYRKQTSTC

NLK, construct: Full length (from UniProt Q9UBE8)
relative phosphorylation
Conditions | at +1 | at +2 | at +3 | at +4 | at -1 | at -2 | at -3 | at -4 | at -5
A fixed | 0.638 | 0.768 | 0.938 | 0.8 | 0.85 | 0.989 | 1.12 | 1.03 | 0.998
D fixed | 0.435 | 0.514 | 0.628 | 0.634 | 0.604 | 0.568 | 0.652 | 0.931 | 1.01
E fixed | 0.41 | 0.477 | 0.618 | 0.607 | 0.571 | 0.604 | 0.729 | 0.855 | 0.86
F fixed | 0.806 | 0.705 | 0.863 | 0.75 | 0.88 | 0.807 | 0.723 | 0.802 | 0.926
G fixed | 1.01 | 0.96 | 1.25 | 0.939 | 0.904 | 0.764 | 1.38 | 1.01 | 0.982
H fixed | 0.652 | 1.23 | 1.04 | 0.982 | 1.21 | 0.842 | 0.819 | 1.11 | 1.02
I fixed | 0.888 | 0.99 | 1.24 | 1.37 | 0.868 | 0.941 | 0.579 | 0.931 | 0.847
K fixed | 0.654 | 1.56 | 1.39 | 1.47 | 1.16 | 0.992 | 0.991 | 1.18 | 1.19
L fixed | 0.921 | 1.12 | 0.995 | 1 | 1.9 | 1.81 | 1.12 | 1.03 | 0.995
M fixed | 0.902 | 0.853 | 1.01 | 0.983 | 1.38 | 1.56 | 1.63 | 0.992 | 0.768
N fixed | 0.581 | 0.991 | 0.762 | 0.868 | 0.805 | 0.812 | 0.956 | 1.1 | 1.01
P fixed | 5.41 | 0.754 | 0.9 | 0.946 | 1.07 | 1.42 | 1.16 | 0.89 | 1.02
Q fixed | 0.629 | 0.904 | 0.883 | 0.948 | 0.953 | 1.03 | 0.941 | 1.02 | 1.06
R fixed | 0.798 | 2.21 | 1.66 | 1.39 | 1.35 | 1.41 | 1.9 | 1.32 | 1.3
V fixed | 0.777 | 1.09 | 0.989 | 1.16 | 0.995 | 0.861 | 0.864 | 0.85 | 0.831
W fixed | 0.753 | 0.859 | 0.824 | 1.16 | 0.638 | 0.807 | 0.752 | 1.07 | 1.07
Y fixed | 0.743 | 1.01 | 1.01 | 0.996 | 0.857 | 0.796 | 0.688 | 0.88 | 1.11
pThr fixed | 0.784 | 0.694 | 0.723 | 0.725 | 0.775 | 0.996 | 0.944 | 1.18 | 0.965
pTyr fixed | 0.717 | 0.523 | 0.796 | 0.631 | 0.774 | 0.772 | 0.734 | 0.661 | 0.949

PAK6, construct: aa382-end (from UniProt Q9NQU5)
relative phosphorylation
Conditions | at +1 | at +2 | at +3 | at +4 | at -1 | at -2 | at -3 | at -4 | at -5
A fixed | 0.845 | 5.4 | 1.16 | 1.06 | 0.921 | 0.523 | 0.766 | 1.19 | 1.21
D fixed | 0.225 | 0.407 | 0.707 | 0.827 | 0.361 | 0.117 | 0.216 | 0.554 | 0.759
E fixed | 0.233 | 0.264 | 1.08 | 0.69 | 0.256 | 0.109 | 0.18 | 0.635 | 0.568
F fixed | 1.37 | 0.835 | 0.986 | 0.672 | 1.12 | 0.626 | 0.638 | 0.778 | 0.855
G fixed | 0.376 | 0.695 | 1.18 | 1.29 | 0.619 | 0.31 | 0.553 | 1.24 | 1.19
H fixed | 0.97 | 0.78 | 1.26 | 1.02 | 1.19 | 1.1 | 0.753 | 0.941 | 0.884
I fixed | 1.56 | 0.752 | 0.887 | 0.623 | 1.14 | 0.767 | 1.11 | 1.33 | 1.41
K fixed | 0.887 | 0.594 | 0.818 | 1.31 | 1.76 | 0.97 | 4.26 | 1.63 | 1.59
L fixed | 1.63 | 0.798 | 1.11 | 0.609 | 1.29 | 0.662 | 0.802 | 0.903 | 1.15
M fixed | 1.44 | 0.706 | 1.05 | 0.786 | 1.09 | 0.461 | 0.655 | 0.943 | 0.875
N fixed | 0.49 | 0.704 | 0.72 | 1.03 | 0.917 | 0.276 | 0.479 | 0.792 | 0.873
P fixed | 0.313 | 0.643 | 1.3 | 1.96 | 0.304 | 0.501 | 0.561 | 0.968 | 0.892
Q fixed | 0.693 | 0.526 | 0.909 | 1.15 | 0.78 | 0.456 | 0.674 | 0.81 | 0.784
R fixed | 1.07 | 0.67 | 0.974 | 1.57 | 2.53 | 8.47 | 3.53 | 1.58 | 1.53
V fixed | 1.61 | 1 | 0.897 | 0.753 | 0.627 | 0.5 | 0.742 | 1.19 | 1.02
W fixed | 1.86 | 0.891 | 0.905 | 0.853 | 0.9 | 0.409 | 0.56 | 0.762 | 0.691
Y fixed | 1.42 | 1.33 | 1.07 | 0.807 | 1.2 | 0.737 | 0.525 | 0.755 | 0.731
pThr fixed | 0.461 | 0.494 | 0.647 | 0.905 | 0.272 | 0.192 | 0.315 | 0.558 | 0.665
pTyr fixed | 0.684 | 0.465 | 0.993 | 0.687 | 0.358 | 0.219 | 0.379 | 0.61 | 0.496

PASK, construct: aa949-1323 (from UniProt Q96RG2)
relative phosphorylation
Conditions | at +1 | at +2 | at +3 | at +4 | at -1 | at -2 | at -3 | at -4 | at -5
A fixed | 0.999 | 0.848 | 0.766 | 0.739 | 0.615 | 1.36 | 0.758 | 0.939 | 0.757
D fixed | 1.04 | 2.11 | 1.66 | 1.65 | 1.2 | 0.778 | 0.63 | 1 | 0.896
E fixed | 1.4 | 1.34 | 1.35 | 1.43 | 0.919 | 0.762 | 0.711 | 1.55 | 0.776
F fixed | 1.07 | 0.829 | 1.14 | 0.825 | 0.491 | 0.814 | 0.565 | 0.779 | 0.72
G fixed | 1.11 | 0.967 | 0.808 | 1.03 | 0.746 | 1.19 | 0.864 | 0.804 | 0.811
H fixed | 1.21 | 1.25 | 1.14 | 1.12 | 0.903 | 1.33 | 0.927 | 1.04 | 2.98
I fixed | 0.665 | 0.664 | 0.583 | 0.748 | 0.384 | 0.493 | 0.425 | 0.663 | 0.742
K fixed | 0.944 | 0.698 | 0.956 | 0.853 | 2.22 | 1.42 | 1.34 | 1.39 | 1.33
L fixed | 0.665 | 0.65 | 0.784 | 0.732 | 0.609 | 0.746 | 0.484 | 0.723 | 1.03
M fixed | 0.914 | 0.758 | 0.823 | 0.764 | 0.665 | 0.774 | 0.55 | 0.829 | 0.909
N fixed | 1.09 | 1.49 | 1.03 | 1.08 | 1.59 | 1.16 | 0.623 | 0.995 | 0.884
P fixed | 0.623 | 0.796 | 1.2 | 1.41 | 2.89 | 1.54 | 1.83 | 1.3 | 0.66
Q fixed | 0.932 | 1.14 | 0.996 | 1.07 | 1.07 | 1.08 | 0.764 | 1.05 | 0.788
R fixed | 0.787 | 0.825 | 0.888 | 0.65 | 0.954 | 1.38 | 4.8 | 1.42 | 1.39
V fixed | 0.854 | 0.71 | 0.591 | 0.668 | 0.447 | 0.638 | 0.433 | 0.68 | 0.625
W fixed | 1.26 | 0.953 | 1.25 | 1.05 | 0.53 | 0.704 | 0.664 | 0.944 | 0.927
Y fixed | 1.45 | 0.966 | 1.04 | 1.18 | 0.774 | 0.835 | 0.635 | 0.9 | 0.775
pThr fixed | 3.06 | 2.97 | 2.92 | 2.7 | 1.02 | 1.43 | 1.04 | 1.25 | 1.11
pTyr fixed | 2.5 | 2.53 | 3.07 | 2.25 | 1.58 | 1.41 | 1.28 | 1.98 | 1.59

PDK4, construct: Full length (from UniProt Q16654)
relative phosphorylation
Conditions | at +1 | at +2 | at +3 | at +4 | at -1 | at -2 | at -3 | at -4 | at -5
A fixed | 0.674 | 0.87 | 1.15 | 0.987 | 1.05 | 0.953 | 0.939 | 0.873 | 1.06
D fixed | 0.79 | 1.21 | 1.1 | 1.16 | 1.09 | 0.775 | 0.841 | 0.861 | 0.995
E fixed | 0.679 | 1.64 | 1.06 | 0.972 | 0.718 | 0.715 | 0.788 | 0.818 | 0.876
F fixed | 1.34 | 0.962 | 1.52 | 1.07 | 1.21 | 1.03 | 1.65 | 1.53 | 1.25
G fixed | 0.705 | 1.22 | 1.05 | 1.06 | 1.29 | 1.22 | 1.02 | 0.992 | 1.03
H fixed | 0.838 | 0.883 | 1.09 | 0.947 | 1.02 | 1.23 | 1.11 | 0.983 | 0.996
I fixed | 1.2 | 0.742 | 1.03 | 0.802 | 0.778 | 0.776 | 0.912 | 0.897 | 0.99
K fixed | 0.692 | 0.745 | 0.622 | 0.834 | 0.847 | 0.889 | 0.827 | 0.86 | 0.88
L fixed | 1.74 | 0.951 | 0.993 | 0.98 | 0.947 | 0.97 | 0.961 | 0.905 | 1.05
M fixed | 1.48 | 1.06 | 1.23 | 1.02 | 1.15 | 1.08 | 1.07 | 1.04 | 1.29
N fixed | 0.732 | 1.05 | 0.898 | 1.36 | 1.1 | 0.883 | 0.906 | 0.964 | 1.15
P fixed | 0.825 | 0.823 | 0.93 | 1.01 | 0.874 | 1.09 | 0.973 | 0.878 | 0.723
Q fixed | 0.862 | 1.09 | 0.818 | 0.959 | 0.89 | 0.964 | 0.912 | 0.95 | 0.791
R fixed | 0.853 | 0.939 | 0.729 | 0.968 | 1.03 | 1.02 | 0.913 | 0.962 | 0.869
V fixed | 0.972 | 0.791 | 0.771 | 0.828 | 0.783 | 0.864 | 0.831 | 0.827 | 0.825
W fixed | 1.61 | 1.03 | 1.01 | 1.04 | 1.22 | 1.55 | 1.35 | 1.66 | 1.21
Y fixed | 1.34 | 0.962 | 1.52 | 1.07 | 1.21 | 1.03 | 1.65 | 1.53 | 1.25
pThr fixed | 0.849 | 1.01 | 1.27 | 1.36 | 0.587 | 0.794 | 0.865 | 0.973 | 1.09
pTyr fixed | 0.895 | 1.19 | 0.99 | 1 | 0.7 | 0.943 | 1.31 | 1.83 | 1.07
